Laboratory results reported in the supplement of paper PMC10126150.
± gives the standard deviation of the averaged measurements.

These sequences were tested on ATP (assay: switch fluorescence ratio, 500 uM ATP over buffer (Cy3 cluster intensity, sum of 5 cycles each) (fold (ratio)); higher = stronger signal-on switching upon ATP binding; sequences stand for … in TCGTCGGCAGCGTCAGATGTGTATAAGAGACAGTTTTTTTTTTTTTTTTTTTTTTTTT…TC). Details: aptamer strand: ATP DNA aptamer (quencher-CACCTGGGGGAGTATTGCGGAGGAAGG + anchor), 100 nM annealed; ATP concentration: 500 uM.
In short: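 Exposure to 500 uM ATP lasted 15 min at 22 °C before imaging, and a selection-buffer image was taken beforehand, for Cy3-labelled switching-strand clusters on a modified Illumina MiSeq flow-cell annealed to 100 nM quencher-labelled ATP aptamer. Five buffer/ATP cycles were run with NaOH stripping and re-annealing between them. The fluorescence ratio per cluster is summed target-cycle over summed buffer-cycle Cy3 intensity, averaged per switch-domain sequence. Clusters outside 100-1000 RFU were excluded.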
AAAATGCGGG showed a switch fluorescence ratio of 1.01 ± 0.036.
In the case of AAAATGGAGA, the switch fluorescence ratio is reported as 0.983 ± 0.029.
Sequence AAAATGGGCA has a switch fluorescence ratio of 1.02 ± 0.024.
In the case of AAAATGGGTA, the switch fluorescence ratio is reported as 0.986 ± 0.034.
AAAATGGTGC was tested, and the switch fluorescence ratio was 1.06 ± 0.065.
For AAAATGTAAG, the switch fluorescence ratio was 1.011 ± 0.0057.
Work on AAAATGTAGG yielded a switch fluorescence ratio of 0.957 ± 0.03.
Sequence AAAATGTGGG has a switch fluorescence ratio of 0.987 ± 0.041.
Work on AAAATTAGTT yielded a switch fluorescence ratio of 1.03 ± 0.012.
AAAATTGTGT was tested, and the switch fluorescence ratio was 1.01 ± 0.015.
With AAAATTGTTT the switch fluorescence ratio was 1.01 ± 0.031.
Sequence AAAATTTTTT has a switch fluorescence ratio of 1.07 ± 0.19.
For AAACACTGGG, the switch fluorescence ratio was 0.9638 ± 0.0073.
AAACAGCTTA gave a switch fluorescence ratio of 1.05 ± 0.056.
AAACATAGTG was tested, and the switch fluorescence ratio was 0.987 ± 0.052.
For AAACCCGGGA, the switch fluorescence ratio was 1.04 ± 0.058.
AAACGCCTTA gave a switch fluorescence ratio of 1.03 ± 0.015.
Sequence AAACGGCGTT has a switch fluorescence ratio of 0.9725 ± 0.0013.
With AAACGGGCTA the switch fluorescence ratio was 1.03 ± 0.039.
Work on AAACGGGGGT yielded a switch fluorescence ratio of 0.991 ± 0.0073.
In the case of AAACGTCTGA, the switch fluorescence ratio is reported as 0.9936 ± 0.0016.
In the case of AAACGTGGGG, the switch fluorescence ratio is reported as 1.01 ± 0.066.
In the case of AAACGTTAGA, the switch fluorescence ratio is reported as 1.03 ± 0.0082.
Work on AAACTAACTT yielded a switch fluorescence ratio of 1.01 ± 0.046.
AAACTAGCGC was tested, and the switch fluorescence ratio was 0.981 ± 0.015.
AAACTAGGGG gave a switch fluorescence ratio of 1.06 ± 0.016.
In the case of AAACTAGGGT, the switch fluorescence ratio is reported as 0.9975 ± 0.0077.
With AAACTGAAAT the switch fluorescence ratio was 1.76 ± 1.1.
With AAACTGAATC the switch fluorescence ratio was 1 ± 0.094.
AAACTGATGA was tested, and the switch fluorescence ratio was 1.06 ± 0.024.
For AAACTGCTCG, the switch fluorescence ratio was 1.04 ± 0.064.
In the case of AAACTGGGGG, the switch fluorescence ratio is reported as 1.012 ± 0.0032.
AAACTTATAA was tested, and the switch fluorescence ratio was 0.991 ± 0.029.
In the case of AAACTTGGCA, the switch fluorescence ratio is reported as 1.017 ± 0.0088.
For AAAGAACACG, the switch fluorescence ratio was 1.05 ± 0.1.
AAAGAACACT was tested, and the switch fluorescence ratio was 1.06 ± 0.037.
Work on AAAGAACGGA yielded a switch fluorescence ratio of 1.06 ± 0.095.
AAAGAAGAGA was tested, and the switch fluorescence ratio was 1.021 ± 0.0069.
AAAGAAGGTG showed a switch fluorescence ratio of 1.06 ± 0.12.
AAAGAATGGG showed a switch fluorescence ratio of 0.978 ± 0.017.
In the case of AAAGACATGG, the switch fluorescence ratio is reported as 0.989 ± 0.017.
Sequence AAAGAGCCTT has a switch fluorescence ratio of 1.13 ± 0.2.
In the case of AAAGAGCGTA, the switch fluorescence ratio is reported as 1 ± 0.029.
AAAGAGTAAT gave a switch fluorescence ratio of 1.006 ± 0.0045.
For AAAGAGTAGT, the switch fluorescence ratio was 0.962 ± 0.014.
With AAAGAGTATA the switch fluorescence ratio was 0.9972 ± 0.0036.
AAAGAGTTGG was tested, and the switch fluorescence ratio was 0.99 ± 0.047.
AAAGATAATG was tested, and the switch fluorescence ratio was 1.003 ± 0.0091.
In the case of AAAGATGTCG, the switch fluorescence ratio is reported as 1.07 ± 0.044.
AAAGCAGTTT gave a switch fluorescence ratio of 1.05 ± 0.022.
Work on AAAGCCGGTG yielded a switch fluorescence ratio of 1.022 ± 0.00024.
In the case of AAAGCCGTTT, the switch fluorescence ratio is reported as 1.2 ± 0.27.
For AAAGCTATAT, the switch fluorescence ratio was 1.12 ± 0.011.
AAAGCTGCCA was tested, and the switch fluorescence ratio was 1.004 ± 0.0056.
Sequence AAAGGAAAAC has a switch fluorescence ratio of 1 ± 0.022.
In the case of AAAGGAACAG, the switch fluorescence ratio is reported as 1.03 ± 0.017.
AAAGGAAGAT showed a switch fluorescence ratio of 0.993 ± 0.055.
With AAAGGATAAG the switch fluorescence ratio was 0.993 ± 0.038.
With AAAGGATATC the switch fluorescence ratio was 1.036 ± 0.0028.
AAAGGATGGG was tested, and the switch fluorescence ratio was 1 ± 0.016.
With AAAGGATTTA the switch fluorescence ratio was 1.02 ± 0.061.
Work on AAAGGCATTC yielded a switch fluorescence ratio of 1.05 ± 0.025.
For AAAGGGAACA, the switch fluorescence ratio was 1.01 ± 0.019.
AAAGGGAGAA showed a switch fluorescence ratio of 0.971 ± 0.011.
In the case of AAAGGGCATC, the switch fluorescence ratio is reported as 1.01 ± 0.058.
For AAAGGGGAAC, the switch fluorescence ratio was 1.03 ± 0.028.
With AAAGGGGATC the switch fluorescence ratio was 0.998 ± 0.017.
With AAAGGGGCTG the switch fluorescence ratio was 0.98 ± 0.061.
AAAGGGGGGA gave a switch fluorescence ratio of 0.995 ± 0.029.
Sequence AAAGGGTATC has a switch fluorescence ratio of 0.9956 ± 0.0092.
For AAAGGGTGTG, the switch fluorescence ratio was 1 ± 0.019.
Work on AAAGGGTTAG yielded a switch fluorescence ratio of 1 ± 0.028.
With AAAGGGTTCT the switch fluorescence ratio was 0.994 ± 0.04.
In the case of AAAGGGTTGA, the switch fluorescence ratio is reported as 0.9559 ± 0.0011.
AAAGGGTTTG was tested, and the switch fluorescence ratio was 1.01 ± 0.033.
AAAGGTCCGC showed a switch fluorescence ratio of 1.18 ± 0.051.
With AAAGGTCGAT the switch fluorescence ratio was 0.986 ± 0.022.
